Test results from patent US8491891B2, “Human beta-glucuronidase mutants with elevated enzymatic activity under physiological conditions and method for identifying such” (Academia Sinica, priority 2008, dated 2013).

Experiment: Enzymatic activity of mouse versus human β-glucuronidase at pH 7.0
Format: biochemical
Description: Each of the cDNAs encoding human and mouse beta-glucuronidases (Genbank accession no. NM_000181, 03-SEP-2009 and Genbank accession no. J02836.1, 29-APR-1996) was fused to the juxtamembrane Ig-like extracellular domain, transmembrane domain and cytoplasmic tail of murine B7-1. See Chen et al., Cancer Gene Ther 14:187-200 (2007).

B1: Mouse β-glucuronidase: mouse beta-glucuronidase, Genbank accession no. J02836.1 (protein)
chain: LKGGMLFPKESPSRELKALDGLWHFRADLSNNRLQGFEQQWYRQPLRESGPVLDMPVPSSFNDITQEAALRDFIGWVWYEREAILPRRWTQDTDMRVVLRINSAHYYAVVWVNGIHVVEHEGGHLPFEADISKLVQSGPLTTCRITIAINNTLTPHTLPPGTIVYKTDTSMYPKGYFVQDTSFDFFNYAGLHRSVVLYTTPTTYIDDITVITNVEQDIGLVTYWISVQGSEHFQLEVQLLDEGGKVVAHGTGNQGQLQVPSANLWWPYLMHEHPAYMYSLEVKVTTTESVTDYYTLPIGIRTVAVTKSKFLINGKPFYFQGVNKHEDSDIRGKGFDWPLLVKDFNLLRWLGANSFRTSHYPYSEEVLQLCDRYGIVVIDECPGVGIVLPQSFGNESLRHHLEVMEELVRRDKNHPAVVMWSVANEPSSALKPAAYYFKTLITHTKALDLTRPVTFVSNAKYDADLGAPYVDVICVNSYFSWYHDYGHLEVIQPQLNSQFENWYKTHQKPIIQSEYGADAIPGIHEDPPRMFSEEYQKAVLENYHSVLDQKRKEYVVGELIWNFADFMTNQSPLRVIGNKKGIFTRQRQPKTSAFILRERYWRIANETGGHGSGPRTQCFGSRPFTFKADFSTPNITESGNPSADTKRITCFASGGFPKPRFSWLENGRELPGINTTISQDPESELYTISSQLDFNTTRNHTIKCLIKYGDAHVSEDFTWEKPPEDPPDSKNTLVLFGAGFGAVITVVVIVVIIKCFCKHRSCFRRNEASRETNNSLTFGPEEALAEQTVFL
modifications: left off: small tags and cut ends
  Enzymatic activity compared with human β-glucuronidase: about three-fold greater
